Source: publication PMC5413884, “Enzyme discovery beyond homology: a unique hydroxynitrile lyase in the Bet v1 superfamily” (Scientific Reports, 2017)
Blank lines part the entries; values can stand above or below the compound they belong to.

How the values were obtained:
[1] = target: T1, DtHNL1 (Davallia tyermanii, UniProt A0A1C9V3S9); assay: X-ray crystal structure, soaking; assay type: binding; conditions: active site
T1 construct: gene HNL1; dimer; about 20 kDa

[2] = target: T1, DtHNL1; assay: benzaldehyde formation at […] nm, Michaelis-Menten fit; assay type: biochemical; conditions: cleavage direction; 50 mM sodium citrate-phosphate pH 5.0, 25 °C
[3] = target: Davallia tyermannii hydroxynitrile lyase 1 (DtHNL1) (Davallia tyermannii); assay: crystal structure; SeMet-SAD structure at 1.85 Å and native crystals soaked with 4-hydroxybenzaldehyde, benzoic acid or (R)-mandelonitrile; sitting drop vapor diffusion, 16 °C, protein in 10 mM Tris-HCl pH 8.0
[4] = test system: O=Cc1ccccc1; assay: GC of (R)-mandelonitrile formed, initial rates, Michaelis-Menten fit; assay type: biochemical, Davallia tyermanii; conditions: apparent, synthesis direction, biphasic MTBE/buffer 2:1, 2 M HCN, pH 4.0, 10 °C
[5] = test system: N#C[C@H](O)c1ccccc1; assay: purified protein; assay type: biochemical, Davallia tyermanii; conditions: cleavage direction, 50 mM sodium citrate-phosphate pH 5.0, 25 °C
[6] = crystal soaked with (R)-mandelonitrile

Compound: N#C[C@H](O)c1ccccc1 [(R)-mandelonitrile, (2R)-2-hydroxy-2-phenylacetonitrile]
X-ray crystal structure, soaking [1, 6]: 5E4B (DtHNL1-MXN) | Km [2]: 300 ± 30 µM

Compound: O=Cc1ccccc1 [benzaldehyde]
X-ray crystal structure, soaking [1, 6]: Bound benzaldehyde (cyan, right) and (R)-mandelonitrile (yellow, left) as observed in a crystal

Compound: O=C(O)c1ccccc1 [benzoic acid]
X-ray crystal structure, soaking [1]: 5E4D (DtHNL1–BEZ)

stoichiometry N [3]: 2
Compound: Davallia tyermannii hydroxynitrile lyase 1 (DtHNL1) (enzyme)

Compound: DtHNL1 (Davallia tyermanii)
Km [4]: 14000 ± 2000 µM | kcat [4]: 70 ± 7 s⁻¹

Compound: DtHNL2 (Davallia tyermanii)
Km [5]: 450 ± 50 µM | kcat [5]: 156 ± 3 s⁻¹

Compound: DtHNL3 (Davallia tyermanii)
Km [5]: 750 ± 80 µM | kcat [5]: 356 ± 8 s⁻¹

Compound: DtHNL4 (Davallia tyermanii)
Km [5]: 630 ± 60 µM | kcat [5]: 272 ± 5 s⁻¹
